Laboratory results from patent US20250163167A1 (SYNTHEKINE, published 2025).
Blank lines part the entries; values can stand above or below the binder they belong to.

Target: T1, human IL-10 receptor (hIL-10R alpha and beta chains) on HEK-Blue IL-10 reporter cells (human, UniProt Q13651 22-578; Q08334 20-325)
T1 sequence 1: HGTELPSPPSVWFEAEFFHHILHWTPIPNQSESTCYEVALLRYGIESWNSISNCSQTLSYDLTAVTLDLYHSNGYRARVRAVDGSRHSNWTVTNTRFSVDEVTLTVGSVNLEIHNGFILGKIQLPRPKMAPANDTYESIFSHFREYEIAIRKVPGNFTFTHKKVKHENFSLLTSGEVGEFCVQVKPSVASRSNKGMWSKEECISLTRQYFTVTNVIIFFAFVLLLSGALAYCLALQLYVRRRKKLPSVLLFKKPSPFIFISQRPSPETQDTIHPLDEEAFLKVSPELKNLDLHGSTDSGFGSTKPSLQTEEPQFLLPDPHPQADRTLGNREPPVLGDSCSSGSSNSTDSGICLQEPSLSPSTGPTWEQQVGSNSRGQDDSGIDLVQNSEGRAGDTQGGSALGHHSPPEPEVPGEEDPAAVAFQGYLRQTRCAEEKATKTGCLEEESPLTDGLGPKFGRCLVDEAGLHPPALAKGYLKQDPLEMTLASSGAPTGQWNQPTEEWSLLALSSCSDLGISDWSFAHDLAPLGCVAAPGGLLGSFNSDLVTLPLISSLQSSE
T1 sequence 2: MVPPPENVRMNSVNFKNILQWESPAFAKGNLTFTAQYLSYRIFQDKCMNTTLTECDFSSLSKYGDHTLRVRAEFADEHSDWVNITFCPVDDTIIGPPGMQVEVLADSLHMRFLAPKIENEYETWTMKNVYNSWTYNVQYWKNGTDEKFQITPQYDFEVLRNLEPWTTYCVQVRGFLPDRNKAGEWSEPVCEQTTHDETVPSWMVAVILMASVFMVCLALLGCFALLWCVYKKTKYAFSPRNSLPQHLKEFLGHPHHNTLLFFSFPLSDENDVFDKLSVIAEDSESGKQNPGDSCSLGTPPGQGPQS
Assay: cell-based or functional assay

B1: IL10R binding molecule of SEQ ID NO: 307 (bispecific antibody)
chain: QVQLQESGGGSVQAGGSLRLSCAASGYTYSSGCMGWFRQAPGKEREAVAAINSDGSTSYADSVKGRFTISKDNAKNTLYLQMNSLKPEDTAMYYCAAEPYCSGGYPRWSVAEFGYWGQGTQVTVSSGGGSQVQLQESGGGSVQAGGSLRLSCAASGYTYSMYCMGWFRQAPGKEREGVAQINSDGSTSYADSVKGRFTISKDNAKNTLYLQMNSLKPEDTAMYYCAADSRVYGGSWYERLCGPYTYEYNYWGQGTQVTVSSASHHHHHH
Abs 630 (25 nM): 0.44 Abs 630
Abs 630 (100 nM): 0.34 Abs 630

B2: IL10R binding molecule of SEQ ID NO: 305 (bispecific antibody)
chain: QVQLQESGGGSVQAGGSLRLSCAASGYTYSSGCMGWFRQAPGKEREAVAAINSDGSTSYADSVKGRFTISKDNAKNTLYLQMNSLKPEDTAMYYCAAEPYCSGGYPRWSVAEFGYWGQGTQVTVSSGGGSQVQLQESGGGSVQAGGSLRLSCAASRYLYSIDYMAWFRQSPGKEREPVAVIYTASGATFYPDSVKGRFTISQDNAKMTVYLQMNSLKSEDTAMYYCAAVRKTDSYLFDAQSFTYWGQGTQVTVSSASHHHHHH
Abs 630 (25 nM): 0.59 Abs 630
Abs 630 (100 nM): 0.35 Abs 630

B3: IL10R binding molecule of SEQ ID NO: 306 (bispecific antibody)
chain: QVQLQESGGGSVQAGGSLRLSCAASGYTYSSGCMGWFRQAPGKEREAVAAINSDGSTSYADSVKGRFTISKDNAKNTLYLQMNSLKPEDTAMYYCAAEPYCSGGYPRWSVAEFGYWGQGTQVTVSSGGGSQVQLQESGGGSVQAGGSLRLSCAASRFTYSSYCMGWFRQAPGKEREGVASIDSDGSTSYTDSVKGRFTISKDNAKNTLYLQMNSLKPEDTAMYYCALDLMSTVVPGFCGFLLSAGMDYWGKGTQVTVSSASHHHHHH
Abs 630 (25 nM): 0.69 Abs 630
Abs 630 (100 nM): 0.49 Abs 630

B4: IL10R binding molecule of SEQ ID NO: 304 (bispecific antibody)
chain: QVQLQESGGGSVQAGGSLRLSCAASGYSNCSYDMTWYRQAPGKEREFVSAIHSDGSTRYADSVKGRFFISQDNAKNTVYLQMNSLKPEDTAMYYCKTDPLHCRAHGGSWYSVRANYWGQGTQVTVSSGGGSQVQLQESGGGSVQTGGSLRLSCAASGYTYLRGCMGWFRQAPGKEREGVAVMDVVGDRRSYIDSVKGRFTISRDNAANSVYLQMDNLKPEDTAMYYCTAGPNCVGWRSGLDYWGQGTQVTVSSASHHHHHH
Abs 630 (25 nM): 1.96 Abs 630
Abs 630 (100 nM): 2.06 Abs 630

B7: IL10R binding molecule of SEQ ID NO: 259 (bispecific antibody)
chain: QVQLQESGGGSVQAGGSLRLSCAASRYLYSIDYMAWFRQSPGKEREPVAVIYTASGATFYPDSVKGRFTISQDNAKMTVYLQMNSLKSEDTAMYYCAAVRKTDSYLFDAQSFTYWGQGTQVTVSSGGGSQVQLQESGGGSVQAGGSLRLSCTVSRYTASVNYMGWFRQAPGKEREGVATIFTGAGTTYYANSVKGRFTISRDNAKNTAYLQMNSLKPEDTAIYYCAVDFRGGLLYRPAYEYTYRGQGTQVTVSSASHHHHHH
Abs 630 (25 nM): 1.85 Abs 630
Abs 630 (100 nM): 1.13 Abs 630

Second part, the binder after the results:

Abs 630 (25 nM): 0.48 Abs 630
Abs 630 (100 nM): 0.39 Abs 630
B5: IL10R binding molecule of SEQ ID NO: 308 (bispecific antibody)
chain: QVQLQESGGGSVQAGGSLRLSCAASGYTYSSGCMGWFRQAPGKEREAVAAINSDGSTSYADSVKGRFTISKDNAKNTLYLQMNSLKPEDTAMYYCAAEPYCSGGYPRWSVAEFGYWGQGTQVTVSSGGGSQVQLQESGGGSVQAGGSLRLSCAVSGYAYSTYCMGWFRQAPGKEREGVAAIDSGGSTSYADSVKGRFTISKDNAKNTLYLRMNSLKPEDTAMYYCAAVPPPPDGGSCLFLGPEIKVSKADFRYWGQGTQVTVSSASHHHHHH

Abs 630 (25 nM): 2.08 Abs 630
Abs 630 (100 nM): 2.04 Abs 630
B6: wild-type human IL-10 (Recombinant Animal-Free Human IL-10, Shenandoah Biotechnology) (ligand)
chain: SPGQGTQSENSCTHFPGNLPNMLRDLRDAFSRVKTFFQMKDQLDNLLLKESLLEDFKGYLGCQALSEMIQFYLEEVMPQAENQDPDIKAHVNSLGENLKTLRLRLRRCHRFLPCENKSKAVEQVKNAFNKLQEKGIYKAMSEFDIFINYIEAYMTMKIRN
